Assay results published in PMC10397247.
Like-named read-outs stand apart in the source and are kept apart here.

Experiments:
4H741-bA = target: T1, 4H741-bA; assay: two-hybrid library CCNG1;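 further: natural log of median RNA to DNA barcode read ratio; higher means stronger binding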
T1 chain: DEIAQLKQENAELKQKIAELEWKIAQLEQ

4H477-bA = target: T2, 4H477-bA; assay: two-hybrid library CCNG1;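 further: natural log of median RNA to DNA barcode read ratio; higher means stronger binding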
T2 chain: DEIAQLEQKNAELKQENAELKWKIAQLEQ

4H72-bN = target: T3, 4H72-bN; assay: two-hybrid library CCNG1;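 further: natural log of median RNA to DNA barcode read ratio; higher means stronger binding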
T3 chain: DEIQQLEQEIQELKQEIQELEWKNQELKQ

4H492-bA = target: T4, 4H492-bA; assay: two-hybrid library CCNG1;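 further: natural log of median RNA to DNA barcode read ratio; higher means stronger binding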
T4 chain: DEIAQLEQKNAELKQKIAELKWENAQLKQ

4H570-bH = target: T5, 4H570-bH; assay: two-hybrid library CCNG1
T5 chain: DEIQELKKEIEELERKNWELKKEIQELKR

4H906-bH = target: T6, 4H906-bH; assay: two-hybrid library CCNG1
T6 chain: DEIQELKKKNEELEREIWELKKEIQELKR

4H584-bH = target: T7, 4H584-bH; assay: two-hybrid library CCNG1
T7 chain: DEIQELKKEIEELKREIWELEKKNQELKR

4H850-bH = target: T8, 4H850-bH; assay: two-hybrid library CCNG1
T8 chain: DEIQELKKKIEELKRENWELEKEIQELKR

4H619-bH = target: T9, 4H619-bH; assay: two-hybrid library CCNG1
T9 chain: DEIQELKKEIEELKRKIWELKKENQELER

4H626-bH = target: T10, 4H626-bH; assay: two-hybrid library CCNG1
T10 chain: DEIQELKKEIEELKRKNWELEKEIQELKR

4H_BCR = target: T11, 4H_BCR; assay: two-hybrid library CCmax; settings: mean of both orientations
T11 chain: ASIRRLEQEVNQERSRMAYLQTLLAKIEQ

4H_APH = target: T12, 4H_APH; assay: two-hybrid library CCmax
T12 chain: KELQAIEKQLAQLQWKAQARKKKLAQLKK

4H_GCN4 = assay: two-hybrid library CCmax
4H58-AA = target: T13, 4H58-AA; assay: two-hybrid library CCmax
T13 chain: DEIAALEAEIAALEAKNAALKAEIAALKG

4H895-AA = target: T14, 4H895-AA; assay: two-hybrid library CCmax; settings: mean of both orientations
T14 chain: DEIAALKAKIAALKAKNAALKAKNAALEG

GCN2_T = assay: two-hybrid library CCmax
O11-AA = target: T15, O11-AA; assay: two-hybrid library CCmax; settings: mean of both orientations
T15 chain: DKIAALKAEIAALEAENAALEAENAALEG

4H510-AA = target: T16, 4H510-AA; assay: two-hybrid library CCmax; settings: mean of both orientations
T16 chain: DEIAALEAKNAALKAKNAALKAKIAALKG

4H451-AA = target: T17, 4H451-AA; assay: two-hybrid library CCmax; settings: mean of both orientations
T17 chain: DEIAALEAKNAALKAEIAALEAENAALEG

O14-AA = target: T18, O14-AA; assay: two-hybrid library CCmax; settings: mean of both orientations
T18 chain: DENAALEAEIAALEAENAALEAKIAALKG

4H43-AA = target: T19, 4H43-AA; assay: two-hybrid library CCmax
T19 chain: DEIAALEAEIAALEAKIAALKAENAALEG

O13-AA = target: T20, O13-AA; assay: two-hybrid library CCmax; settings: mean of both orientations
T20 chain: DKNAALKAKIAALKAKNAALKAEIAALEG

Sequence of 4H_GCN4 (chain, as listed by the source): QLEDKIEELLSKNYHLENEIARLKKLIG

DEIAQLEQKNAELKQENAELKWKIAQLEQ [4H477-bA]
interaction score (4H741-bA): -1.37 | interaction score (4H477-bA): -0.249 | interaction score (4H72-bN): -3.66 | interaction score (4H492-bA): -0.749

DEIQELKKEIEELERKNWELKKEIQELKR [4H570-bH]
interaction score (4H570-bH): 1.19 | interaction score (4H906-bH): 0.224 | interaction score (4H584-bH): -1.16 | interaction score (4H850-bH): 1.01 | interaction score (4H619-bH): -0.75

DEIQELKKEIEELKREIWELEKKNQELKR [4H584-bH]
interaction score (4H906-bH): 0.202 | interaction score (4H584-bH): 1.18 | interaction score (4H850-bH): 0.297 | interaction score (4H619-bH): 1.2

DEIQELKKEIEELKRKNWELEKEIQELKR [4H626-bH]
interaction score (4H906-bH): -0.349 | interaction score (4H626-bH): 0.932

DEIAALEAEIAALEAKNAALKAEIAALKG [4H58-AA]
interaction score (4H_BCR): -2.14 | interaction score (4H_APH): -1.68 | interaction score (4H_GCN4): 0.011 | interaction score (4H58-AA): 1.75 | interaction score (4H895-AA): -0.545 | interaction score (GCN2_T): -0.172

DEIAALEAEIAALEAKIAALKAENAALEG [4H43-AA]
interaction score (O11-AA): -0.943 | interaction score (4H_BCR): -1.44 | interaction score (4H_APH; mean of both orientations): -0.887 | interaction score (4H510-AA): -0.823 | interaction score (4H451-AA): -1.31 | interaction score (O14-AA): -0.845 | interaction score (4H43-AA): 1.54 | interaction score (GCN2_T): -1.41 | interaction score (O13-AA): 0.246
